B1: TPR t1 (parent)
chain: GACCAAUCUGCCCUCAGAGCUCGAGAACAUCUUCGGAUGCAGAGGAGGCAGGCUUCGGUGGCGCGAUAGCGCCAACGUCCUCAACCUCCAAUGCAUCCCACCACAUGAUGAUGCCUGAAGAGCCUUGGUUUUUUG

Variants of: B1
Experiment: polymerase ribozyme fitness, log enrichment relative to wild type (log ratio); higher = more active; in vitro selection for triplet polymerase activity
Procedure, shortened: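 Genotype fitness is the logarithm of its enrichment divided by wild-type enrichment, using inverse-variance-weighted averages of replicates. That logarithm is base 2. Enrichment was measured by Illumina sequencing of input and output libraries from one triplicate in vitro selection round, with frozen incubation at −7 °C, on PCR-built, transcribed mutant libraries of each subunit of a heterodimeric triplet polymerase ribozyme, retaining genotypes with ≥10 input reads and ≥1 read per output.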

| Variant | polymerase ribozyme fitness (log ratio) |
| --- | --- |
| C22G C94G | -4.33 |
| C20U C70U | -1.7 |
| C22G G60U C85A | -4.53 |
| C20U C56A | -1.52 |
| C22U C72G C82A | -5 |
| C22U C72A | -3.91 |
| C22G C40G G65U G69A C99A C101A C123U | -6.38 |
| U21C G39C C56A | -1.44 |
| U21C G110U G113U | -4.79 |
| C22G G63C | -4.13 |
| C22U C53G G61A U106A A118G | -5.66 |
| U21C U112A G122C C123U | -0.556 |
| C22G A29C C40A G120C | -5.67 |
| U21A C72A | -0.312 |
| C22G G23A U125A G128U | -4.85 |
| C22A A29G C40G G61U C72A A83U U131A | -5.02 |
| C22U A41U C73U C82G A83U C124U | -4.15 |
| C20G C115U G117C | -4.63 |
| C20G C40A G58C A121U | -4.66 |
| C22A G48U G63A C94G G120A | -5.73 |
| C20G G44U C56A A68G C98A C114U | -6.77 |
| C22U G44C | -4.2 |
| C20G C82A | -4.78 |
| C22U C49U C89A C123U | -6.02 |

| Variant | polymerase ribozyme fitness (log ratio) |
| --- | --- |
| C22G G110U U112G | -7.26 |
| C22U C62A | -4.41 |
| C20G C72A U87C G113A U130G | -1.05 |
| U21A G128C | -2.29 |
| C22A C31G A50C C70G A111C | -7.1 |
| C20U A100U G120U | -1.89 |
| U21G C88G U96A C102U | -5.77 |
| C22A C86G | -4.67 |
| U21A C88A G110A | -4.92 |
| U21A A27C A68G C94A | -6.24 |
| C20G U125G | -4.91 |
| U21A C28G G57A U59G C124U U130A | -3.45 |
| C20U G44U G93A | -3.1 |
| C22G C76G | -3.73 |
| C22A C73G C82A G120U U125C | -5.37 |
| C22A C86G C114U | -5.23 |
| C20U A100U | -2 |
| G23A C82G | -5.43 |
| C22U A37U A100C | -5.02 |
| C20U G135U | -1.97 |
| C22U C70U G117C | -6.77 |
| U21C C56U A84C C98A | -4.77 |
| C20G G36A A43C U96G G117C | -5.42 |
| C22U G63C G120U | -4.89 |

| Variant | polymerase ribozyme fitness (log ratio) |
| --- | --- |
| U21G U54C C56A G57C | -1.15 |
| C22G U112G | -2.35 |
| C22G C94U C101G | -5.92 |
| C22A C40A G69A C86U C97G C99G U125A | -6.51 |
| C22G G69C G77U C101G C115U | -5.91 |
| C20U C53U U54A U125G | -2.55 |
| U21G A119G | -0.142 |
| C22A G60C | -5.44 |
| C22G G39C A50G G51A C115U | -5.65 |
| C20G G39A G57A U109A | -3.93 |
| C20U G61C C114U | -1.73 |
| U21C G42A C88U C89A | -3.87 |
| C22G U38A C64U G77U G120A | -3.99 |
| C22G C72A C88U | -2.7 |
| C22A G57C G69U C76A | -5.3 |
| C20G G23U U32A C98G C123G U131G | -6.64 |
| C22A C85U | -4.92 |
| C22A A43G A46U C72U G113C U116G | -6.81 |
| U21C A27U C123U | -4.79 |
| C22U A27C A41U A50U G60C C82U | -6.98 |
| C22U A41G C72U C124U | -3.44 |
| G23A C56U G110C | -5.74 |
| C22G A43U U106A C115A | -1.37 |
| C20U U96A | -2.25 |

| Variant | polymerase ribozyme fitness (log ratio) |
| --- | --- |
| C22U G63C U78G U112A | -4.23 |
| C20G G45A U130C | -5.42 |
| C22A A46C | -5.4 |
| U21A A43C C73G U78C | -3.93 |
| C20U C72A A119U | -1.58 |
| C20U G71C A75G C82U U87G A90U A105G G113U | -3.34 |
| C20G C56U C72U | -3.6 |
| U21G G93U A111G U112G | -2.45 |
| C22U G71U | -4.03 |
| C22G U87A C114A | -2.89 |
| C22A C49U C56A U78C G117U | -5.8 |
| U21A U59A C62A | -3.07 |
| U21A C31U U78G C101G U106A G113C | -4.88 |
| C22G C86U C123A | -3.08 |
| C20G C53U | -3.06 |
| C20G C53A | -4.27 |
| C20G C53G | -4.62 |
| C22U A27C U87G | -5.65 |
| U21A U33G G42C A43U G63U G117A | -6.65 |
| C20G C72U | -4.16 |
| C20U C40G G63C | -4.09 |
| C20U U132C | -1.93 |
| C22A A75U U78A U116G | -4.77 |
| C20G C73A C101U G113U | -0.556 |

| Variant | polymerase ribozyme fitness (log ratio) |
| --- | --- |
| U21G A50U | -2.82 |
| U21C G69U C88U C94G C124U | -1.5 |
| C20U C56A G71U A118U G120U | -2.27 |
| C22G C72U | -3.13 |
| C22U U54G | -3.24 |
| C22A A83G | -5.4 |
| C20U G60A C124U | 0.188 |
| U21A G39C G77A | -1.28 |
| C22G A90G | -3.06 |
| U21A G45U C101U U106C | -4.17 |
| U21C G63A | -0.609 |
| C22U A24U G57U C82U C115A | -6.34 |
| C22G C64U C115U A121U | -2.57 |
| C20G G44A G120C | -4.1 |
| C22U G120C U130G | -4.69 |
| C22G A68G | -5.5 |
| C20U G52C | -2.19 |
| U21C C62U A84C | -0.909 |
| C22U U55G U106A | -3.56 |
| C20U G60A G61A C99U | -5.32 |
| C20G C62A | -4.56 |
| C22G A41U G44U | -5.29 |
| C22G G69A | -3.64 |
| U21A G45U | -1.28 |

| Variant | polymerase ribozyme fitness (log ratio) |
| --- | --- |
| C22U G69C C82A U112C A121C U132A | -3.46 |
| G23A C79A G110C U125G | -6.79 |
| C20U G52A G60A | -2.6 |
| C22U C94A | -4.02 |
| C22U A43C C123G | -4.32 |
| U21G G36C C72G | -2.78 |
| C20U G42C C88G U112A G117A | -6 |
| U21C C28A G63A U92G C124A G127A | -7.31 |
| C20U C73A U81A U96A A121U C124U U134A G135U | -0.843 |
| C20U U55G | -1.39 |
| C20G C94U C114A G122U U125G | -6.15 |
| C20U G77A U87A G110A | -4.79 |
| U21A A27G G51U U116C | -7.29 |
| C22A A29G A50G U116G U129C | -5.9 |
| C22G G47C C104A | -4.76 |
| G23A A50U G61U G71C A100C A105C U116C U125A G128U | -5.77 |
| C22G G51A G61U U112G | -5.05 |
| C22A G45A C53G C88G A111U | -3.89 |
| U21A A43C | -2.9 |
| C20G G93A | -5.03 |
| U21G C64U C72U C73G | -3.77 |
| C22A G69U | -3.88 |
| C22G G42C G61U C89U | -5.61 |
| C22G A46C C62G A74U | -6.42 |

| Variant | polymerase ribozyme fitness (log ratio) |
| --- | --- |
| C20U A46C G69C C101U | -4.11 |
| C20G G63U C82G G113C G128U | -4.75 |
| C20U U54A C73G U133A | -1.99 |
| C22U U38G C73U | -4.47 |
| C22U C73G C82A G120U U129A | -5.92 |
| U21G C102A | -2.91 |
| C22G G57A A68C C80A C101U C124A | -6.21 |
| C22G C115A | -4.07 |
| C20G G122A | -4 |
| C20U U106C | -2.1 |
| C20U G48C U54G A74C | -3.11 |
| U21C U55C G63U A105U | -4.84 |
| C22G C82G U96A | -3.98 |
| C22U G69A C104G A111C | -7.35 |
| C22G A50U U96C A119G | -3.9 |
| C20U A43G C53A G110U G120U | -6.4 |
| C20U A43U C114G C123A | -2.41 |
| C22G A41U G63U U78C C99G | -6.66 |
| U21A C49A G63U | -2.05 |
| C20U G69A | -3.34 |
| C22G G63A C114U | -3.48 |
| C20U C97G | -5.61 |
| C20U G69U G120C | -0.787 |
